Biological target: CD22 on CD22-positive Raji cells and CD22 positive Ramos cells (human) (UniProt P20273)
Assay: flow cytometry on CD22-positive Raji cells, PE anti-human IgG Fc secondary, four-parameter fit

Substance “AGC1100, anti-CD22 monoclonal antibody hLL2, also called epratuzumab” has an EC50 of 9 nM.

— WO2013167756A1
